Results: the DeepSol protein solubility set

Test: soluble on expression in E. coli; label from the status in PepcDB or PDB records

Sequence | soluble on expression in E. coli
MIVRTLLDTDLYKFTTSYAYIKLFPYAMGTFSFNDRNETEYTEEFLEALKSEFNKLSRLRLTEEELEYMTRNCRFLPRVYWEWLSSFRFDPDKIDIHLDTTGRLHIEVSDFLYKVTLYEVPLLAIVSEIKNKFFGNVPDMSEILCKLSEKVELSNQHQLRFSEFGTRRRFSIDVQETVIKRLNDTAKYCTGTSNCYFAMKYGMKMMGTHPHEWFMFHGAQFGYKHANYMALENWVNVYDGDLGIALSDTYTSGIFLSNLSRKQAKLFDGVRCDSGNEFDFIDKLVARYKELGIDATTKTIVFSNALDFTKALEIQEYCKDKIRCSFGIGTNLTNDTGFAPSNIVMKLTQCKMNVNQEWRECIKLSDDEGKHTGSPEEVQACLYELRLAKLEHHHHHH | soluble
DGSPAATPEIRVNHEPEPAGGATPGATLPKSPSQLRKGPPVPPPPKHTPSKEVKQEQILSLFEDTFVPEISVTTPSQPAEASEVAGGTQPAAGAQEPGETAASEAASSSLPAVVVETFPATVNGTVEGGSGAGRLDLPPGFMFKVQAQHDYTATDTDELQLKAGDVVLVIPFQNPEEQDEGWLMGVKESDWNQHKKLEKCRGVFPENFTERVP | soluble
MGSDKIHHHHHHMRKKIVFIIRDLGYGGAQRQLITLVKNLDKQIFNTTVIFFYANGSLQKDLENNNIQTICLEKRGRWDIFGFLWRLMGHLKRIQPDSLHGYLSESNLLTIFLKPFFLSTSIIWGIRDSNISLDSYDWLDRLIFEIECLLSRFVDLIIVNSHAGQAYHLSHGFPAKKMVVIPNGIDTERFQPNSEAGLRVRTEWRISKDTILIGLIGRLDPMKDHPTFLKAVALLCKERENVCFVCVGIGTHEYAQELYQLAEELEVAEKVIWAGGRADMPDIYNALDITCSSSSYGEGFSNVIGEAMACGVPCVVTDVGDSAWIIDDTGIVVPPNNPEALKAGITSLINIISSKSYSSCHIRQRIISHFSVLNLSLKTQNSLLSINVL | not soluble
AHHHHHHGSKEKRKYFMAHRIGVIQRSKIRELFERASKMENVISLGIGEPDFDTPNNIKEAAKRALDEGWTHYTPNAGIPELREAIAEYYKKFYGIDVEVDNVLVTAGAYEATYLAFETMLEQGDEVIIPDPAFVCYVEDAKLAEAKPIRLPLREENDFKPDIDELLERITKRTRMIVINYPNNPTGAVLDKETAKAIADVAEDYNIYILSDEPYEHFLYDDAKHYPMIKFAPDNTILANSFSKTFAMTGWRLGFVIAPTQIIREMIKLHAYIIGNVASFVQVAGIEALRSKESWKAVEEMRKEYNERRKLVLQRLRKMPYIKVREPKGAFYVFPNISETEMSSEEFSEWLLEKAKVVVIPGTAFGENGEGYVRISYATSREKLIEAMDRIEKALEEI | soluble
MSLFLDVQGTLISDHDKSLIHGAKELIDFLNAKNLPYLIITNNTKKLDFLEKLQQKGLVIKENAYIDPFSVLKHLLRPCKVAAFGADEFVKSLENLGFELDFVNPSAVLVASYDDFKFKDFATMIELARREVRFIAMHETSIYKKDGRPYPGVGSIMAMLKNAIDFEYEVVGKPSIAFYKEALNLIRRQNSKIDFEDIKIISDDFRGDLLKAKELGMKTLLVLSGKISDTKGLDTDLLDGVYPSVFEFLKDLKCQIEGHHHHHH | not soluble
MFSPSKFRKQVNESESVSNCESTTSNSRRILDQHAGLPISSAFRTEASDIGHHFSTKMYFKILSPNNVFALMGDNEFKTSFKIFTIFEPTSTPNGKIQSLITISYKINNVLFKMEKEIFIEKVNIFSLELHIFNFQSTNRSNPASESIHQLDLSSEALVTSTLNIRGNKITTTLRPRTSPYKRAGDASMSREDLRSPDSVSTFTTVLHVFHKVFQVAATYTIRENRSERQTKVKLESLERRLKANEKARKEIEAEAEKWKDRATRNSKRLPELELELAETVQAKEEWQVKSQEMEIQNKQLVEELNEVQKKLEEIENSQKTFHQKVVSTLNLDEEYFQNPDEEQDGSLSQFNMDVLEQEIVKYQEKCISLKQENEILKEKLQQLSSSLTVNQNHVSTLMDHLEINKEQSREIQGICKKEIAIRQDHENRINHDVTLLNSLINEQKMELEMLKAEIRCLRSYSQEMSQSNKNNIILLKSAETERKSLLETLTVLLNSEEEATENNVKRTIRDLVRERDTEQTKRFEAEKAASNAEGVLLEQAKQQRNALFRARVSEEEYSKSMEKIEELEQELLASDLERKNLEHKIASLENCISKVSQLLNVNVGGVFDAIFDRIEELIAQESVYRVVVNENRLISENIFRGLQSVRKDFQSGKSGGGSDKKQPASPVAAAAKIIQERHTLKTIDKMDKLNKDLLATMTIETLKAADIEKTNLKKRMNEQDARIRQLEREKKEGERIRSIIAKWEKRNIPKTEKSSPMKKVPPIENFRAKSQTSITGLSPVL | not soluble
MTRILPCLFLVLLAAAPLLANPANPLNLKKHHGVFCDVCKALVEGGEKVGDDDLDAWLDVNIGTLCWTMLLPLHHECEEELKKVKKELKKDIENKDSPDKACKDVDLC | not soluble
EIRLSNTQQTYAFLKKRLRDYKNETFAALFLDNQHRIIAYEELFSGTINTATVYPRPIVERVLQLNAAALILAHNHPSGLSDASQQDLAITERIRDALDLVDARLLDHIVIGDNEVYSIFAENKWVCN | not soluble
SMTTLFSKIKEVTELAAVSGHEAPVRAYLREKLTPHVDEVVTDGLGGIFGIKHSEAVDAPRVLVASHMDEVGFMVSEIKPDGTFRVVEIGGWNPMVVSSQRFKLLTRDGHEIPVISGSVPPHLTRGKGGPTMPAIADIVFDGGFADKAEAESFGIRPGDTIVPDSSAILTANEKNIISKAWDNRYGVLMVSELAEALSGQKLGNELYLGSNVQEEVGLRGAHTSTTKFDPEVFLAVDCSPAGDVYGGQGKIGDGTLIRFYDPGHLLLPGMKDFLLTTAEEAGIKYQYYCGKGGTDAGAAHLKNGGVPSTTIGVCARYIHSHQTLYAMDDFLEAQAFLQALVKKLDRSTVDLIKHY | soluble
MAQMTMIQAITDALRVEMKNDPNVLVFGEDVGVNGGVFRATEGLQAEFGEDRVMDTPLAESGIGGLAVGLALEGFRPVPEIQFFGFVYEVMDSISGQLARMRYRSGGRWTAPVTVRSPFGGGVHTPELHADSLEGLVAQQPGLKVVIPSTPYDAKGLLISAIRDNDPVIYLEHMKLYRSFRQDVPEGEYTIDLGKADIKREGTDVSVIAYGAMVHAALKAAEELEKEGISLEVVDLRTVQPLDIETIIASVEKTGRVVVVQEAQKQAGIAANVVAEINDRAILNLEAPVVRVAAADTVFPFSQAESVWLPNHKDIVEAVNKVMNF | not soluble
LSSPQNILVCVTQQITCERLILKAAELRNELKGELFVIHVAKNEWNFLDNIKEGEALEYLFKISKSVGANLSVLKSDDIVQTIVNFAKENKITHIVMGESPNDHKENNFYNELKRLLSNVEILVIPQAGI | not soluble
MIKRVFIDTDIILDVALAREPFFTASKIILAMAENNIIIGNISSNCVANIYYILRKSGGDNKARKFILNIVKYITVIVINHRNVLDSLRSKFSDFEDALQHSSAVENQCEYIITRNIEDYKNAKIKVLLPEEFIGMFLEHHHHHH | not soluble
VNEVLAKNLSLLKEYQPETYLKLDRYIKGEYVPKDNSVEKILLARQDDLIINILVKCSDKDFLLCDHENPINEAYAWIDKYIDPSNKADIVFGMGLAFHLEVLLTSFPNKKVIVIEPNINLFYQIACIRNLEPVIKKAEIIVDEDLDVILERINSLFWDTEKGGIQVQPLEVYGEMFPEMWDKLRDSFIKLANNFTVDIATRRKFGELWVHNNIKNLNKICEASNAGVLVGKFKGIPGILVSAGPSLEKNIHLLKGLEDKCVIMAAGTAVRIMEDFGLAPHFMVGIDAGAKEGEIHSNVKNKDIYFIYSNQVSTYSVDGYKGPKFVMNYPIDMYTAGFFEYAGIKSDFFLSGPSVANTCFDILFKMGCDPIIIIGQDMAFTYGSMYAGEVPGTVVDGAGEAKRRGYVLAKDIYGNEVYTTRPFLAMRNWFEGYFEKVRDKTTIINATEGGLNISYARNETLEAALKSCNLSESGIKDHIRSLHEEGKFADTVASKIEEYRAYVQREIRRLEQLSKRQLETAEDLKRDVYHPSKSRSRFIKAVNSINEMSDRVLQSPIYNSLLKNLVEIDFYIIKAEVDRLVKILTKYDDIKNVYVNAILSQNQKLNASLGKIKKFFDESDVTA | soluble
PAKLGYWKLRGLAQPVRLFLEYLGEEYEEHLYGRDDREKWMSEKFNMGLDLPNLPYYIDDKCKLTQSVAIMRYIADKHGMLGTTPEERARISMIEGAAMDLRIGFGRVCYNPKFEEVKEEYVKELPKTLKMWSDFLGDRHYLTGSSVSHVDFMLYETLDSIRYLAPHCLDEFPKLKEFKSRIEALPKIKAYMESKRFIKWPLNGWAASFGAGDAPPS | soluble
MKVGIIGKQGRLGRVLQAILDENGFDVVENNWDIAFLSVPIGAAISYIEKYDGPFIEVSSVKTPFKKYAGRIVSIHPLFGPASYKDGVHRTVLFIKDISMPEYRDLIAEMFRGYEIVDTTADVHDKEMAKSLALPYAVAIISKNIDTAFRTKSFDTFKGIVRILENENEEVMLDTINKNPYAQYMYDIVKNLGMVIQMAGDPLEHHHHHH | not soluble
MGSDKIHHHHHHMQQAIEQTATGGALRFNGICKVFPGVKALSDISFEARPGSVHALMGENGAGKSTLLKILGGSYQPNSGTLQIGEHSYQFKSTAESIAAGVAVIHQELHLVPEMTVAENLLLGHMPNRFGLINRGAMYRRAGELLKGLADEIDPRTRLGDLSLGQRQLVEIAKAMSRNAHVIAFDEPTSSLSAREIDRLMAIIVRLRDEGRVILYVSHRMEEIFRVCDAVTVFKDGRFVKTFEQMADLDHDRLVTCMVGRDIQDIYNYRPRQHQGPSLRVTGLLGLGLQEPVSFAVQKGEVLGFFGLVGAGRTELFRILSGLTRSTAGSLQLDGQPLTLKSPRDAIAAGVLLCPEDRKKEGIVPLSSVAENINIGARPRHVNLGCLIQGGWERDNARAQIKSMNVKTPSPEQQIMFLSGGNQQKAILGRWLSMPMKVLLLDEPTRGIDVGAKSEIYEIIHTLAADGIAVIVVSSDLMEVMGISDRILVMSEGAITGELNRDEADESRLLQLALPRTRG | not soluble
MGSSHHHHHHSSGLVPRGSHMTEIYTSVLSYRLLEGKAYSDADTRSLDRMMRSIDEFFSANPGYINFHIYRSYRTDSDVIFWYSSRNPDLMILAKERVQASMRPIAVSSFSSISIYDESPYNAMNKKLEDSLRLPPLRYFVAYPMSKTPDWYLLDFDTRKEIMHEHIKMALNHPDEKGIRSYTTYSFGIGDQEFVVLYEIPDIAAWSRVTEKLREARARKWIIKETPILLGRLVDAGDIAGFLL | soluble
MGSDKIHHHHHHMINLNGNSSSSRQVTFITHPSIQSKAFASYLSETLMAPVVLQNINKPLAQRLAKDSVILFDIAVSNKKLNGVWRDIIRLQADNPRLLIINSAQKYELYEMAQWPALYGVFRHDDDESRLIEGVKAVLNGEQTAELSVMHPAMYAADHASTPVENSPLTERECEILNELRCGATNLDIARALFISENTVRTHLYNVFRKLSVKNRTQAVSWANEHLRH | not soluble
MSLMKQNPILITGGTGTVGSRIASRLIKLGYRVRIASRKKGALADAEYVYFNWKYASSFTPALEQVKQIYLVAPVGVFDPAPYVLPFLKEAKRLGAKRVVMQSASVVSENGPVFGALHQAVREFPEWTVLRPSYFMQNFINVQHRMSIQTEGRITTASGEGKLGFIDADDIAETAVRALIDDVPHQTHHILTGPEALSYAEAAEIIGAAAGRRVEHVSISRSELQHKMEAGGLPADYAHFMAKLDEAISHGAEHRVTDTVKRVTGKEPRSLSEFAAAHAAYWTSFWTEEGGSHHHHHH | soluble
